Experimental data published in paper PMC9834060.

How the values were obtained:
Test in all cases: cryo-EM structure; BlaR1 in LMNG, purified by GraDeR glycerol gradient, desalted into 150 mM sodium chloride, 20 mM HEPES pH 7.5; grids blotted at 4 °C; BlaR1(F284A) also with ampicillin (1 mM, then 250 µM)
[1] = target: S. aureus BlaR1 F284A mutant (BlaR1(F284A)) (S. aureus) (UniProt Q00419)
[2] = target: S. aureus BlaR1 F284A mutant acylated with ampicillin (BlaR1(F284A)–ampicillin) (S. aureus) (UniProt Q00419)
[3] = target: S. aureus BlaR1, wild type (BlaR1(WT)) (S. aureus) (UniProt Q00419)

## S. aureus BlaR1 F284A mutant (BlaR1(F284A)) (from UniProt Q00419 1-585) (receptor)
[1]
  stoichiometry N: 2

## S. aureus BlaR1 F284A mutant acylated with ampicillin (BlaR1(F284A)–ampicillin) (from UniProt Q00419 1-585) (receptor)
[2]
  stoichiometry N: 2

## S. aureus BlaR1, wild type (BlaR1(WT)) (from UniProt Q00419 1-585) (receptor)
[3]
  stoichiometry N: 2
